Publication PMC8387365 (Nature chemical biology, 2021)

Molecular target: T1, Kif4A-GFP (UniProt O95239 1-1232)
T1 sequence: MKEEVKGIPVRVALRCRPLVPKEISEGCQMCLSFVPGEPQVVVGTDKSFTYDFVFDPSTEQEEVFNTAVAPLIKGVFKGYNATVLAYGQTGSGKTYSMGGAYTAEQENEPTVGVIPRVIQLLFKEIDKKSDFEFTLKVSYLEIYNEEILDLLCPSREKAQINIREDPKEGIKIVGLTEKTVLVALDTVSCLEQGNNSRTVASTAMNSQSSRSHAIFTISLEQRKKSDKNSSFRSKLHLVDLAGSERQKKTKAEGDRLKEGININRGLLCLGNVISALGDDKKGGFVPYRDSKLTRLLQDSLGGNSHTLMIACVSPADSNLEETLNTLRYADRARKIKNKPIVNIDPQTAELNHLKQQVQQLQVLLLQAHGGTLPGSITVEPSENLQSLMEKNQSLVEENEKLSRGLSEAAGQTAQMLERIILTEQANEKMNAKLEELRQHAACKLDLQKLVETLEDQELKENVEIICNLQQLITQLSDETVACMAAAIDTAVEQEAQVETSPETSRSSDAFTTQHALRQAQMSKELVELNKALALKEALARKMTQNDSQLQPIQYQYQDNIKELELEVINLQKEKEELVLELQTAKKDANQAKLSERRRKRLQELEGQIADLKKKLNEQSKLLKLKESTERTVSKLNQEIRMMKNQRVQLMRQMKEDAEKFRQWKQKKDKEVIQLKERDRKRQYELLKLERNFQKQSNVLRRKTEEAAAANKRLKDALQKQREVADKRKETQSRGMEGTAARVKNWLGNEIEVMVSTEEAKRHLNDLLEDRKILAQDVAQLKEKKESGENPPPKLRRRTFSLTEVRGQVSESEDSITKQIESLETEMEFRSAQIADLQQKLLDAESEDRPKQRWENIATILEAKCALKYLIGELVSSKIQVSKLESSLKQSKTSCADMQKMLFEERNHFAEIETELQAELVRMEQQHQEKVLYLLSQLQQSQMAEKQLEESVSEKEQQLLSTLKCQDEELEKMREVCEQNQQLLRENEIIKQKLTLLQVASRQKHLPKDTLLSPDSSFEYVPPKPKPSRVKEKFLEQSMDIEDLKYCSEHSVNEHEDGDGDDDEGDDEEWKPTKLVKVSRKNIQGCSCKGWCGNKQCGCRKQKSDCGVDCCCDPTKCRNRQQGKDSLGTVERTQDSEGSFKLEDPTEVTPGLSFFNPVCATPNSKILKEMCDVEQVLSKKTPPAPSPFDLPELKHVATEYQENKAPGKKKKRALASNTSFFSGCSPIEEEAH
Assay: BLI

- Kd: 12.5 ± 2.09 nM
B1: full-length PRC1 (Protein Regulator of Cytokinesis-1) (natural protein)
chain: MRRSEVLAEESIVCLQKALNHLREIWELIGIPEDQRLQRTEVVKKHIKELLDMMIAEEESLKERLIKSISVCQKELNTLCSELHVEPFQEEGETTILQLEKDLRTQVELMRKQKKERKQELKLLQEQDQELCEILCMPHYDIDSASVPSLEELNQFRQHVTTLRETKASRREEFVSIKRQIILCMEALDHTPDTSFERDVVCEDEDAFCLSLENIATLQKLLRQLEMQKSQNEAVCEGLRTQIRELWDRLQIPEEEREAVATIMSGSKAKVRKALQLEVDRLEELKMQNMKKVIEAIRVELVQYWDQCFYSQEQRQAFAPFCAEDYTESLLQLHDAEIVRLKNYYEVHKELFEGVQKWEETWRLFLEFERKASDPNRFTNRGGNLLKEEKQRAKLQKMLPKLEEELKARIELWEQEHSKAFMVNGQKFMEYVAEQWEMHRLEKERAKQERQLKNKKQTETEMLYGSAPRTPSKRRGLAPNTPGKARKLNTTTMSNATANSSIRPIFGGTVYHSPVSRLPPSGSKPVAASTCSGKKTPRTGRHGANKENLELNGSILSGGYPGSAPLQRNFSINSVASTYSEFAKDPSLSDSSTVGLQRELSKASKSDATSGILNSTNIQS
